Data as given in article PMC4333214.
“And” between values parts separate entries of the source, which are not always exact repeats. Equal values may be shown once.

Molecular target: FLβ.AP2 (AP2 comprising full-length β2, μ2 and σ2 subunits and the α-trunk domain) (UniProt P63010)
Assay: co-sedimentation

Sequence of clathrin (Q00610 whole entry, looked up): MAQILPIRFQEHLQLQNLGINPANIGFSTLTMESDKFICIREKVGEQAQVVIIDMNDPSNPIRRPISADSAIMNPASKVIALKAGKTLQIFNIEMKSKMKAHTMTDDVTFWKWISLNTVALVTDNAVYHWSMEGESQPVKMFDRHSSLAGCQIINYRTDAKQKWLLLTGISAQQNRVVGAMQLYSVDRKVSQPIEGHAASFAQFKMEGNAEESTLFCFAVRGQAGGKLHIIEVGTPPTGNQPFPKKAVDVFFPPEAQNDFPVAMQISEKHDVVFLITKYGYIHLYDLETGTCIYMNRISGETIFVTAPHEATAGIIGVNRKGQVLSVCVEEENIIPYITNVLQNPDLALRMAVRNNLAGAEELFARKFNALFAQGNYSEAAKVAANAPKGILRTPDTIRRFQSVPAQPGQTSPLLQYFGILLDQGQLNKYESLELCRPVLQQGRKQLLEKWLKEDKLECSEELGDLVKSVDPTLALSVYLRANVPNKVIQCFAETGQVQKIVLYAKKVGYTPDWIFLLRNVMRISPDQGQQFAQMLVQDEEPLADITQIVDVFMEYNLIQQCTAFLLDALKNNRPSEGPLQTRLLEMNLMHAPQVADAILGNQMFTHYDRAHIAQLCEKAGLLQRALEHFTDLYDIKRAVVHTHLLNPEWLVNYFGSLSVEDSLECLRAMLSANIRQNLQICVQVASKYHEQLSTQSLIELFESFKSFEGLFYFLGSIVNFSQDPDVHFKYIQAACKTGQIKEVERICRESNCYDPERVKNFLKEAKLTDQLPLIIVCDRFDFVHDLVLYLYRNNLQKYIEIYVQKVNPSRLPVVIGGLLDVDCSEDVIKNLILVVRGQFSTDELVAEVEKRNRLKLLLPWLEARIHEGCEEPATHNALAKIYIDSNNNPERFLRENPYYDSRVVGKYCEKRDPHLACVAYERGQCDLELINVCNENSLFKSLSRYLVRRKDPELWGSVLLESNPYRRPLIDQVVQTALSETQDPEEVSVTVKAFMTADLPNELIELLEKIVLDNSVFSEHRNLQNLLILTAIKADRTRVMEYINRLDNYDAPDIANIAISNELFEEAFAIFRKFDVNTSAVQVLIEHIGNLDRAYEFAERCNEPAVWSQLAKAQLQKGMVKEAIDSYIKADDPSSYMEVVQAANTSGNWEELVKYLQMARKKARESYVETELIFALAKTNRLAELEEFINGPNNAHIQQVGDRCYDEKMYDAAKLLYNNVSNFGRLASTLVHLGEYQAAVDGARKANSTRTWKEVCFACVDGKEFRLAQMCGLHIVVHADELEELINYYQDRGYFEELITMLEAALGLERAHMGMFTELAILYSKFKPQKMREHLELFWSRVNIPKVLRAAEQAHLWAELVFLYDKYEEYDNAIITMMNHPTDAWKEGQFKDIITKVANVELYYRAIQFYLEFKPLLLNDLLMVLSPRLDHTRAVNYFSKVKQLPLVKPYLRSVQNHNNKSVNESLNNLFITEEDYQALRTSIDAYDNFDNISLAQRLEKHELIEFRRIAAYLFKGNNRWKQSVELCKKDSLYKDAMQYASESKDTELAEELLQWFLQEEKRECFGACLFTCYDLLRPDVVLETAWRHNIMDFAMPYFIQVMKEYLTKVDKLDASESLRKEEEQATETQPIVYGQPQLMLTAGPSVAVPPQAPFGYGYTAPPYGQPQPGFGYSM

ratio of clathrin to AP2 in the liposome pellets: 26.5% and 5.2%
Substance: clathrin (from UniProt Q00610 1-1675) (complex)
